The target in the series is OGG1 (hOGG1, 8-oxoguanine glycosylase) (UniProt O15527 1-345). Kind of series: EMSA; two retarded bands (1:1 and 1:2 suggested); not cleaved; EMSA buffer A: 50 mM Tris-HCl pH 7.4, 100 mM NaCl (duplex) or 100 mM KCl (G4), 1 mM EDTA, 5 mM NaF, 1 mM Na3VO4, 1 mM DTT, 2.5 ng/uL poly[dI-dC], 8% glycerol; 8 nM DNA, 0/1/5 uM protein (also given as 1 and 5 ug), 15 min; native 5% PAGE in TBE at 20 C (Results give buffer B for the G4 incubation). Particulars: protein: recombinant; tags: N-terminal His; label: 5'-32P on G-rich strand; annealed with complementary strand in 100 mM NaCl. (In general: Mobility shift assays separate free from complexed probe on a gel.)
Sequence of OGG1 (hOGG1, 8-oxoguanine glycosylase) (O15527 whole entry): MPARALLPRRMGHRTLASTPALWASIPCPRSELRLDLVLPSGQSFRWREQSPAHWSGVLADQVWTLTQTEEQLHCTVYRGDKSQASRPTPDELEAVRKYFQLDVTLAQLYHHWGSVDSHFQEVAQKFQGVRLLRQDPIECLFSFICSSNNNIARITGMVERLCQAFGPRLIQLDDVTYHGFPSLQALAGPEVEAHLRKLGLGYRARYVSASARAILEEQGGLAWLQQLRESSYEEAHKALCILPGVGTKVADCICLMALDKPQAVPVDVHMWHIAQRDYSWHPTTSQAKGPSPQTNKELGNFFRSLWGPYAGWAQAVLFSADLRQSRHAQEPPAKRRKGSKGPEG

B1: 32R wild-type duplex (dsDNA)
DNA 1: AGGGCGGTGTGGGAAGAGGGAAGAGGGGGAGG
DNA 2: CCTCCCCCTCTTCCCTCTTCCCACACCGCCCT
In the case of B1, the binding result was “binds”.

For the origin of these results see paper PMC7865940, “Effect of DNA Glycosylases OGG1 and Neil1 on Oxidized G-Rich Motif in the KRAS Promoter”.
